Experimental data from publication PMC8231982.

What was measured:
[1] = molecular target: HA H3 top domain (not stated (Figure 2 shows HA of influenza A virus X-31)) (UniProt P03437); experiment: ELISA
[2] = molecular target: HIV-1 gp120 monomer, strain HxBc2 (HIV-1, strain HxBc2) (UniProt P04578); experiment: SPR

Row | Substance | Kd [1] [nM] | Kd [2] [nM]
1 | SUMO-CVN2L0 fusion protein (designed binder) | 554 | –
2 | CVN2L0, engineered linker-free domain-swapped dimer of cyanovirin-N (designed binder) | – | 49
